Results taken from patent US20260167710A1 (GlaxoSmithKline, published 2026).

Assays:
human IL-33 [1] = target: T1, human IL-33 (human, Biotinylated in Example 2; the site is not stated.); assay: cell-based or functional assay
T1 chain: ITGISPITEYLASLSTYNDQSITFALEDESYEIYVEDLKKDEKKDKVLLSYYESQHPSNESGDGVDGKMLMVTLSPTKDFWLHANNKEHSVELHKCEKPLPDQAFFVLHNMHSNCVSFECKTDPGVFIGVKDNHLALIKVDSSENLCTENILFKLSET

human IL-33 [2] = target: T1, human IL-33; assay: cell-based or functional assay
[3] = target: T2, human recombinant neonatal receptor (FcRn) (human, UniProt P55899 24-297; P61769 21-119); assay: SPR (ProteOn XPR36), antibody captured by protein L, FcRn as analyte, equilibrium fit, pH 6.0, 25 C
T2 construct: also called human FcRn; human recombinant soluble FcRn
T2 sequence (P55899 24-297 limits assumed, chain 1 of 2): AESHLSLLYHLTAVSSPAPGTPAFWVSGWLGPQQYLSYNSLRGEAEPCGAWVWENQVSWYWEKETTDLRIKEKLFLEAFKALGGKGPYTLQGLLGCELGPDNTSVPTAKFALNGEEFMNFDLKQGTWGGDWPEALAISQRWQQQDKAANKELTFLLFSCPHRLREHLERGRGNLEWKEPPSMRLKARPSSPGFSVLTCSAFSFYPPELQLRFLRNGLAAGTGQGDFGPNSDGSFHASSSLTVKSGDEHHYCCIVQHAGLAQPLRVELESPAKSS
T2 sequence (P61769 21-119 limits assumed, chain 2 of 2): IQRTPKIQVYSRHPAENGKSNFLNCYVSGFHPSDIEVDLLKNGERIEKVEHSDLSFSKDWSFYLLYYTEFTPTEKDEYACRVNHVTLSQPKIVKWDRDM

[4] = target: T3, cynomolgus recombinant neonatal receptor (FcRn) (cynomolgus monkey, UniProt Q8SPV9 24-297; Q8SPW0 21-119); assay: as above
T3 construct: extracellular domain; beta-2-microglobulin is not mentioned; also called cyno FcRn; cynomolgus monkey FcRn
T3 sequence (Q8SPV9 24-297 limits assumed, chain 1 of 2): as the sequence (P55899 24-297 limits assumed, chain 1 of 2) above, with N39D, E44Q, G99S, S189G, S190N, L217M, S269T counted along it
T3 sequence (Q8SPW0 21-119 limits assumed, chain 2 of 2): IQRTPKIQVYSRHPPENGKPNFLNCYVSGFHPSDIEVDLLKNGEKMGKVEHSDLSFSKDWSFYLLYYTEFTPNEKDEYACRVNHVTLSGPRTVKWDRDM

human IL-33 [5] = target: T1, human IL-33; assay: cell-based or functional assay
human IL-33 [6] = target: T1, human IL-33; assay: cell-based or functional assay
[7] = target: T2, human recombinant neonatal receptor …; assay: SPR (ProteOn XPR36), antibody captured by protein L, FcRn as analyte, equilibrium fit, pH 7.4, 25 C

B1: 22A06-458 (antibody, human IgG1, kappa)
heavy: QVQLVQSGAEVKKPGASVKVSCKASGYTFISYGMHWVRQAPGQGLEWMGEINPHGGSTSYAQKFKGRVTMTRDTSTSTVYMELSSLRSEDTAVYYCARPSAAYSHYLGIDLWGRGTLVTVSSASTKGPSVFPLAPSSKSTSGGTAALGCLVKDYFPEPVTVSWNSGALTSGVHTFPAVLQSSGLYSLSSVVTVPSSSLGTQTYICNVNHKPSNTKVDKKVEPKSCDKTHTCPPCPAPELLGGPSVFLFPPKPKDTLYITREPEVTCVVVDVSHEDPEVKFNWYVDGVEVHNAKTKPREEQYNSTYRVVSVLTVLHQDWLNGKEYKCKVSNKALPAPIEKTISKAKGQPREPQVYTLPPSRDELTKNQVSLTCLVKGFYPSDIAVEWESNGQPENNYKTTPPVLDSDGSFFLYSKLTVDKSRWQQGNVFSCSVMHEALHNHYTQKSLSLSPGK
light: DIQMTQSPSSVSASVGDRVTITCRASQGISSWLAWYQQKPGKAPKLLIYAASRLQSGVPSRFSGSGSGTDFTLTISSLQPEDFATYYCQQANVFPLTFGGGTKVEIKRTVAAPSVFIFPPSDEQLKSGTASVVCLLNNFYPREAKVQWKVDNALQSGNSQESVTEQDSKDSTYSLSSTLTLSKADYEKHKVYACEVTHQGLSSPVTKSFNRGEC
Human IL-33 [1]
  IC50, inhibition of 10 ng/mL human IL-33 induced IL-6 production, mouse bone marrow-derived mast cells: ~0.566 nM
  IC50, inhibition of 10 ng/mL human IL-33 induced IL-13 production, mouse bone marrow-derived mast cells: ~0.567 nM
  IC50, inhibition of 10 ng/mL human IL-33 induced IL-18 production, mouse bone marrow-derived mast cells: ~0.631 nM
  IC50, inhibition of 10 ng/mL human IL-33 induced TNF-α production, mouse bone marrow-derived mast cells: ~0.581 nM
  pIC50, inhibition of 10 ng/mL human IL-33 induced IL-6 production, mouse bone marrow-derived mast cells: ~9.25
  pIC50, inhibition of 10 ng/mL human IL-33 induced IL-13 production, mouse bone marrow-derived mast cells: ~9.25
  pIC50, inhibition of 10 ng/mL human IL-33 induced IL-18 production, mouse bone marrow-derived mast cells: ~9.2
  pIC50, inhibition of 10 ng/mL human IL-33 induced TNF-α production, mouse bone marrow-derived mast cells: ~9.24
Human IL-33 [2]
  IC50, inhibition of 1 ng/mL human IL-33 induced IL-6 production, mouse bone marrow-derived mast cells: 0.0312 nM
  IC50, inhibition of 1 ng/mL human IL-33 induced IL-13 production, mouse bone marrow-derived mast cells: 0.028 nM
  IC50, inhibition of 1 ng/mL human IL-33 induced IL-18 production, mouse bone marrow-derived mast cells: 0.0613 nM
  IC50, inhibition of 1 ng/mL human IL-33 induced TNF-α production, mouse bone marrow-derived mast cells: 0.0374 nM
  pIC50, inhibition of 1 ng/mL human IL-33 induced IL-6 production, mouse bone marrow-derived mast cells: 10.5
  pIC50, inhibition of 1 ng/mL human IL-33 induced IL-13 production, mouse bone marrow-derived mast cells: 0.55
  pIC50, inhibition of 1 ng/mL human IL-33 induced IL-18 production, mouse bone marrow-derived mast cells: 10.2
  pIC50, inhibition of 1 ng/mL human IL-33 induced TNF-α production, mouse bone marrow-derived mast cells: 10.4
[3]
  Kd: 25 nM
[4]
  Kd: 24.7 nM
Human IL-33 [5]
  IC50, inhibition of 100 ng/mL IL-33/IL-12 induced IFN-γ secretion from whole blood, pre-complexed, Mean: 3.9 nM
  IC50, inhibition of 100 ng/mL IL-33/IL-12 induced IFN-γ secretion from whole blood, pre-complexed, donor #91232: 2.79 nM
  IC50, inhibition of 100 ng/mL IL-33/IL-12 induced IFN-γ secretion from whole blood, pre-complexed, donor #91845: 5.75 nM
  IC50, inhibition of 100 ng/mL IL-33/IL-12 induced IFN-γ secretion from whole blood, pre-complexed, donor #91865: 0.88 nM
  IC50, inhibition of 100 ng/mL IL-33/IL-12 induced IFN-γ secretion from whole blood, pre-complexed, donor #92023: 3.43 nM
  IC50, inhibition of 100 ng/mL IL-33/IL-12 induced IFN-γ secretion from whole blood, pre-complexed, donor #92186: 3.01 nM
  IC50, inhibition of 100 ng/mL IL-33/IL-12 induced IFN-γ secretion from whole blood, pre-complexed, donor #92187: 4.75 nM
  IC50, inhibition of 100 ng/mL IL-33/IL-12 induced IFN-γ secretion from whole blood, pre-complexed, donor #92257: 2.66 nM
  IC50, inhibition of 100 ng/mL IL-33/IL-12 induced IFN-γ secretion from whole blood, pre-complexed, donor #92258: 7.9 nM
  pIC50, inhibition of 100 ng/mL IL-33/IL-12 induced IFN-γ secretion from whole blood, pre-complexed, Mean: 8.48
  pIC50, inhibition of 100 ng/mL IL-33/IL-12 induced IFN-γ secretion from whole blood, pre-complexed, donor #91232: 8.55
  pIC50, inhibition of 100 ng/mL IL-33/IL-12 induced IFN-γ secretion from whole blood, pre-complexed, donor #91845: 8.24
  pIC50, inhibition of 100 ng/mL IL-33/IL-12 induced IFN-γ secretion from whole blood, pre-complexed, donor #91865: 9.05
  pIC50, inhibition of 100 ng/mL IL-33/IL-12 induced IFN-γ secretion from whole blood, pre-complexed, donor #92023: 8.46
  pIC50, inhibition of 100 ng/mL IL-33/IL-12 induced IFN-γ secretion from whole blood, pre-complexed, donor #92186: 8.52
  pIC50, inhibition of 100 ng/mL IL-33/IL-12 induced IFN-γ secretion from whole blood, pre-complexed, donor #92187: 8.32
  pIC50, inhibition of 100 ng/mL IL-33/IL-12 induced IFN-γ secretion from whole blood, pre-complexed, donor #92257: 8.58
  pIC50, inhibition of 100 ng/mL IL-33/IL-12 induced IFN-γ secretion from whole blood, pre-complexed, donor #92258: 8.1
Human IL-33 [6]
  IC50, inhibition of IL-33 (125 pM) induced IFN-γ secretion from CD4+ T cells, pre-complexed, Mean: 675 pM
  IC50, inhibition of IL-33 (125 pM) induced IFN-γ secretion from CD4+ T cells, pre-complexed, N = 1: 1060 pM
  IC50, inhibition of IL-33 (125 pM) induced IFN-γ secretion from CD4+ T cells, pre-complexed, N = 2: 936 pM
  IC50, inhibition of IL-33 (125 pM) induced IFN-γ secretion from CD4+ T cells, pre-complexed, N = 3: 282 pM
  IC50, inhibition of IL-33 (125 pM) induced IFN-γ secretion from CD4+ T cells, pre-complexed, N = 4: 591 pM
  IC50, inhibition of IL-33 (125 pM) induced IFN-γ secretion from CD4+ T cells, pre-complexed, N = 5: 790 pM
  IC50, inhibition of IL-33 (125 pM) induced IFN-γ secretion from CD4+ T cells, pre-complexed, N = 6: 497 pM
  IC50, inhibition of IL-33 (125 pM) induced IFN-γ secretion from CD4+ T cells, pre-complexed, N = 7: 574 pM
  pIC50, inhibition of IL-33 (125 pM) induced IFN-γ secretion from CD4+ T cells, pre-complexed, Mean: 9.2
  pIC50, inhibition of IL-33 (125 pM) induced IFN-γ secretion from CD4+ T cells, pre-complexed, N = 1: 8.97
  pIC50, inhibition of IL-33 (125 pM) induced IFN-γ secretion from CD4+ T cells, pre-complexed, N = 2: 9.02
  pIC50, inhibition of IL-33 (125 pM) induced IFN-γ secretion from CD4+ T cells, pre-complexed, N = 3: 9.54
  pIC50, inhibition of IL-33 (125 pM) induced IFN-γ secretion from CD4+ T cells, pre-complexed, N = 4: 9.22
  pIC50, inhibition of IL-33 (125 pM) induced IFN-γ secretion from CD4+ T cells, pre-complexed, N = 5: 9.1
  pIC50, inhibition of IL-33 (125 pM) induced IFN-γ secretion from CD4+ T cells, pre-complexed, N = 6: 9.3
  pIC50, inhibition of IL-33 (125 pM) induced IFN-γ secretion from CD4+ T cells, pre-complexed, N = 7: 9.24
[7]
  Kd: 1230 nM
